Assay results from paper doi:10.1101/509869 (bioRxiv, 2019).

B1: TEX12 (human, amino acids 1-123, full length) (natural protein, UniProt Q9BXU0 1-123, looked up)
chain: MMANHLVKPDNRNCKRPRELESPVPDSPQLSSLGKSDSSFSEISGLFYKDEALEKDLNDVSKEINLMLSTYAKLLSERAAVDASYIDEIDELFKEANAIENFLIQKREFLRQRFTVIANTLHR
B2: TEX12core (human TEX12, amino acids 49-123) (domain or fragment, UniProt Q9BXU0 49-123, looked up)
chain: KDEALEKDLNDVSKEINLMLSTYAKLLSERAAVDASYIDEIDELFKEANAIENFLIQKREFLRQRFTVIANTLHR

Target: the molecule itself
Assay: SEC-MALS

Protein | stoichiometry N
B1 | 2
B2 | 2
